The source of these data is a protein production outcome set (Wang et al. 2014).

This data set is described as follows: label from the status in PepcDB records.
As for “MGTTVMVPIYTSTAAASPYSINLASMPPKTVLSKGDEEIAAIALPRQPKFYDLKTADGIPYSHIALLHSNNVLATTVQQTCIRYRDESTVCQFCAIEKSLDAGRTITRKLPEQLAEVTEAAVRLDGIEQVIMTTGTPNSGDRGAAYLTKCAAAIKARVNIPIQAQCEPPDDFIWFERMKAAGVDSLGMHLEAVDPDVRAKIMPGKAEVPVSYYYEAYEAAVKVFGWGQVSTYLLAGLGDSFETLVEASEKLVNMGVYPFVVPFVPISETPLANHPAPDSDFMFALYQRVGTIIKQSQISSVDMKAGCAKCGACSALSTFAKLEHHHHHH”, the protein production entry is on record as “failed”.
Regarding “MATYNYPEFGAGLWHFANYIDRYAVDGYGPALSTIDQINAAKEVGELSYVDLPYPFTPGVTLSEVKDALKDAGLKAIGITPEIYLQKWSRGAFTNPDPAARAAAFELMHESAGIVRELGANYVKVWPGQDGWDYPFQVSHKNLWKLAVDGMRDLAGANPDVKFAIEYKPREPRVKMTWDSAARTLLGIEDIGLDNVGVLLDFGHALYGGESPADSAQLIIDRGRLFGMDVNDNLRGWDDDLVVGTVHMTEIFEFFYVLKINNWQGVWQLDQFPFRENHVEAAQLSIRFLKHIYRALDKLDIPALQAAQEAQNPLQAQRIVQDALLSSITVSE”, the protein production entry is reported as “not failed”.
As for “MVPSGVRTGRWVAAARAAQRRPRVDSLGQPPSPESASTRAALYVHWPYCEKRCSYCNFNKYIPRGVEEGTVRNCLVTEARTLLRLSGVQRVESVFFGGGTPSLASPHTVAAVLEAVAQEVYLPADSEVTLEANPTSAPGPRLAAFGAAGVNRLSIGLQSLDDAELQLLGRTHSASDALRTLAEARLLFPGRVSVDLMLGLPAQKVEPWLQQLQKLLYHCDDHLSLYQLTLERGTSLFAQVQQGTLPAPDPDLAAEMYQEGRTVLRDAGFRQYEVSNFARNGALSTHNWTYWQCGQYLGIGPGAHGRFVPQGTGGHTREARIQTLEPDNWMKEVTLFGHGTRKCVRLGKLELLEEVLAMGLRTDVGVTHQHWQQFEPQLTLWDVFGASKEVEELLAQGLLLLDYRGLRCSWEGLAVLDSLLLTLLPQLQEAWQHRPSSPVSGG”, the protein production result was “failed”.
On to “MEDTMSKKAKKIIKIVVISIVTLAITICFGGYMMFHNEIKTLHSIEKLDDYPFYMMEYYGDYGLDEFLEQGGASSDSELVSFVVKRLMKGLPIEINIPSLGCSTFTAVTPENEYLFGRNFDLSYSPAMMVRTKPEKGYESVSMVNLGFIGYGKDKLPDNFFNSITTLAGPYAPLDGMNEKGLSVGVLLIPTEETNQTTNKVDITTTTAIRMILDTCATVEEAVDLLSQYDMHSSANSCYHFQIADANGTSVVVEYINNEMKLVEPKQAYQAATNFLLTPGDYDFGHGQDRYNTLMTTLDKKQGVLSEKEAMNLLKAVSQQPHKTKDGSISATQWSVVYNNTKRTATVSMGMDYQHTYEIKLFE”, for which the protein production entry is given as “failed”.
Consider “LLLLHGFTSHPVLTLGPLSERLKEAGWEVRQPALPGHGTRPEDLLKVRFQDWLLAAEEAYLELPEPRGVVGLSMGGLLAAHLAARHPTKALVALAPAFALKNPLAPYLHWLIPRFPGPPSIEDPELRKRNPNYPYFPTRAVLELLALMRKTPEVLPRVKARALVVEAGKDRVVKGVDRYFALLGSPRKDHLVFPESGHDLLLDRDREEVARAVRDWL”, for which the protein production entry is reported as “failed”.
With “MSAYIAPSQIAQRQLEYFNGKHVLVAGEVEDMFPLELTAHCESVEVFTSNYSYFRQIRHSDKIKSHFGSEFDVETQADMLLLYWPKAKAEAEYLLAMLMAKLGVNTEIVVVGENRSGVKSIEKMFKEYGPVNKYDSARRCSFYWGNCLNEPKPFNQEEWFKSYTVTLGEQSLTVKSLPGVFSHGEFDLGSRLLLETLPNLSGKVLDFGCGAGVLGAFMAKANPEIAIEMCDINAYAITSSQATLEANGLSGRVFASDIYSDTANDYRFIISNPPFHSGLDTNYNAAETLLGHAPQHLSNHGEMIIVANSFLKYPPIIENAFNNCETLNKTNKFSIYYAKKS”, the protein production result is recorded as “failed”.
For “SKKPYIVTIACTKGGSAKSTNAANIGAFCADHGLRTLLIDTDTQPTLSSYYSLAKTAPGGIYEFLLQRDVEPSHIVSQTSIKNLDLIQSNDPSNNVSHMLRNAPDGSIRFSHLIKSINNYDVIVIDTRGTRDITVDMSVLAADILFCPILPQILSAKEFIRGTIGMYQDLQTFESFGFKLPPLKAIANGVDNTNDVKFVMQKLHTLFANTFDES”, the protein production entry is “failed”.
“MSSDDAWTAAALPDQSGRRVVVTGANSGLGFEATRAFARAGAHVVMACRSTERGEDARDDIVAELPGASLTVHELDLAALDSVAAFADWFTAEFDSLHVLANNAGVMAIPRSETADGFETQFGVNHLGHVALTAGLLGVLRRTSGETRVVTQSSGAHRRGRIDFEDLQHEAEYGKWEAYSQSKLANLLFAYELDRRLRAASASVTSVACHPGYAATNLQLRGPQAAGSRLRLLAMRAANALVGQSAEQGAWPLLYAATNPSIDGGEYIGPGGVLNMRGHPERQQPSARSRDEDTARRLWTVSADRTGVDFDLPDPA”: the protein production entry is “failed”.
As for “MTSLNVLVAVCMAYVILLFGVAFAADRLSSTGRTTWLRSPLVYTLSLSIYCTAWTFYGAVGYAARSGLEFVTIYLGPTLVMIGWWWGLRKLVRVGRSQRVTSIADLISSRYGKSNTLAVCVTLLAVIGVTPYIALQLQSITLSFDIFAEADPVSRPGEGSSAFWVACGLAVFAILFGTRNLDANERHHGVVTAVAIEAVVKLVALLAVGVFVVWGIAGGLGDTLARIDASEIGVWQVDHGRWATITFLAAAAFVCLPRMFQVMVVENDDERHLRTAAWAFPLYLMLMSLFVVPIAVVGLELMPEGANPDLFVLTIPLAEGQETLAMLSFLGGFSSATSMVIVAAMALSTMVSNHIVMPIWLNAQGSGASVSGDVRSVVLYARRVSIAVILALGYFYYRLSGGGAALASIGLIAFAGIAQILPALVGGLFWRGATRTGALVGLTVGFVLWLYTLLLPGMGAGVIAPQVMEHGLFGLSWLRPQALFGIAGMDPMVHSVMWSLSLNTAAFCIASLLSFPSPLERLQGAQFVNVFDHSAGPRGWTGSVAQSEDLMIMSQRIMGAREAQEFFQSEAMAQGSRAYLPEPTPAFLERLERELSGSVGAATAHAMIGQIVGGSSVSVEDLLAVADESAQLLEYSSRLEAKSAELSRTARKLREANEKLTQISLQKDAFLSQISHELRTPMTSIRAFSEILRDTDGLAPVDKTRYAAIIHDEALRLTRLLDDLLDLSVLENGQVTLNMGQGRLVDVLDRAMATALTGTDRPLRVRRHRGAERIVLRTDLDRLSQVFINLITNAQKYCDAADPELSVTVHDVGGRIVVDLIDNGSGIPRDARKMVFEKFARVGAEKAGGAGLGLAICREIMQRLGGDISYLSGQEGGAFRVSLPVGMEIAAQ”, the protein production entry was “failed”.
For the sequence “MREDAARDRMRGFGFHEHVISESIKELLEVYEDQWFLIEDDSYGPLLAICLEKQEEKEKQLAEVQANQLPENHNEEMAEEEQPNQLAVEIHEEEKEQEQDMHIEYGRDQADELSINSEAVNDPSPAAIHLGEASSDYAQSSVRGVENLHCGWLIDEEETDPEEETDPEEKETEPEDPKEKETEPEEDSDGDDDEIIQLTPEPLCEELQELLREVRGQKRRKKEMRWDK”, the protein production result is “failed”.
Regarding “MKTLVHLSDLHFGKTESHLVDAIAAEVRAVDSDLLVVSGDLTQRARKDEFLQARAFLDSLPGPRIVVPGNHDVPLWNVFARAMTPLSRYRRYIEADTDPFYADSEVAVVGINTARSLTIKNGRINVRQLKAATEKFAYMSDDITRIVVTHHPFEGLDLESDDGIVARADLAMDAFSRSGVDIILSGHQHLHRAGSSARRYLIDGYAALLVQAGTAVSSRVRQAANSFNIIRIEHPRISIECRAWQSLQSGFETSASYSFRQGSGGWEPALEHHHHHH”, the protein production entry is on record as “failed”.
“GPSRMRHERVVIIKNMFHPMDFEDDPLVLNEIREDLRVECSKFGQIRKLLLFDRHPDGVASVSFRDPEEADYCIQTLDGRWFGGRQITAQAWDGTTDYQ”: the protein production result is “not failed”.
In the case of “MEINRQIIHPLIFVAFFVTITGSVAGAAAAPEVNMELVGHFGGTTDAVDVAGNYAYVGQGQDFLILDITNPSSPVLVSKIMTEGFVRDIKVSRNYAYVADDDNGLVIVDISNPSSPTLKGSYNIPGYTYCITVSGNYAYVADNDGLVIVDISNPSDPILKGRYAGPTGDVAVYGNYAYVADWGNGLMIVDISNPSSPVLKGSYDTAGDIYGVSISGNYAYVADGDTGLVIVDISNPSSPTLKGNYNTAGIACDVSVLGNYAYVADNDNGLVIVDISDPSSPVLKGNGSTTGYAHGIEVSGNYAYVANSNTGLVIVDISNPSSPTLKGSCDTIVRAKSIAVSGNYAYIADWDNGLVIVDISNPSSPFLKGSCDTPRSAQGVAVSGNYAYVADDDGLVIVDISNPSFPILNKSYNTGGWAQGITVSGNYAYVIDMANGIFIVDISNPSSPILEGMYDTSPIIIENYDYTGSIWSVSVSGNYAYVADEGNGLLIVDISNPSSPILKGSYDTAGLAYDVAVSGNYAYVADSKNGLAIIDISNPSSPILVGNYNTSGYAECVSISGNYAYVAVDDSLVVVDISNPSSPILKGLYAGSAGDIAVSGNYVYASEGVNGLVILKANPESAFTVADFSSNITSGYAPLSIQFNDHSQNATSWNWDFGDGYNSTNQNPIHTYSSAGTYTVNLTVINENRTASKVAKIFVLNTSSSTEENSSGSEETGGDGVILTKDTGAPTKERKITPGFEIVYWVVSLLVAFWIKGSNKK” it was “failed”.
As for “MKGLKALILVILVLGLVVGSVAAAPEKKVEQVRNVEKNYGLLTPGLFRKIQKLNPNEEISTVIVFENHREKEIAVRVLELMGAKVRYVYHIIPAIAADLKVRDLLVISGLTGGKAKLSGVRFIQEDYKVTVSAELEGLDESAAQVMATYVWNLGYDGSGITIGIIDTGIDASHPDLQGKVIGWVDFVNGRSYPYDDHGHGTHVASIAAGTGAASNGKYKGMAPGAKLAGIKVLGADGSGSISTIIKGVEWAVDNKDKYGIKVINLSLGSSQSSDGTDALSQAVNAAWDAGLVVVVAAGNSGPNKYTIGSPAAASKVITVGAVDKYDVITSFSSRGPTADGRLKPEVVAPGNWIIAARASGTSMGQPINDYYTAAPGTSMATPHVAGIAALLLQAHPSWTPDKVKTALIETADIVKPDEIADIAYGAGRVNAYKAINYDNYAKLVFTGYVANKGSQTHQFVISGASFVTATLYWDNANSDLDLYLYDPNGNQVDYSYTAYYGFEKVGYYNPTDGTWTIKVVSYSGSANYQVDVVSDGSLSQPGSSPSPQPEPTVDAKTFQGSVHYYYDRSDTFTMTVNSGATKITGDLVFDTSYHDLDLYLYDPNQKLVDRSESSNSYEHVEYLNPAPGTWYFLVYAYYTYGWAYYELTAKVYYG”, the protein production result is reported as “failed”.
For “MSEDKDMKNRNAMTIKRFVDVEEDGEHGGSGEFAELFQESIKQHRVGEVVTGKVVHISNEFVLVDIGYKSEGCIAIDEFLDEDGNLTVKVGDEVKALFERKENQKGYAVLSRRKAERLAVWDVIDEAGGEGGIIEGKITGKVKGGLTVDIGVQAFLPASQVDLRPGGNLDKYIGTTDRFKVLKLNKKRGNIVLSRRVLMEEERESSRKETLATLAEGQVREGVVKNITDYGAFVDIGGVDGLLHVTDMSWGRLGHPSEILKPGDKLNVKVLKYDQEKGKISLGLKQVTPDPWVSVEQKYNQGDRVKGKVVSLTDYGAFIALEDGVEGLVHVSEMSWTRRLRHPSEILTVGDEVETVVLGVDMGNRRISLGLKQVQVNPWTQLEEKYPVGTKLEGQIKSITDFGVFIGIEEGIDGLVHVSDISWTKRIKHPGEVFTKGQTVQAVVLNIDPENERLSLGIKQLLLDPWSEIPVKYRPGTRVHGKVTSVTDFGVFLEIEEGIEGLIHVSELSREKVASPKEFTNVGDELDAVVLSVDESEKKIALSIKSLQMAAEKAEIESYMQAQGEATSNLGELLKVGFRKNGDGNDLEHHHHHH”, the protein production entry is given as “failed”.
